Patent US20140271457A1 (AbbVie / Abbott, published 2014)
Substitutions are numbered along the chain they refer to.

B1: DVD3224 (bispecific antibody, IgG1)
VH: EVQLVQSGAEVKKPGASVKVSCKASGYTFANYGIIWVRQAPGQGLEWMGWINTYTGKPTYAQKFQGRVTMTTDTSTSTAYMELSSLRSEDTAVYYCARKLFTTMDVTDNAMDYWGQGTTVTVSSASTKGPEVQLVESGGGLVQPGGSLRLSCAASGFSFSKYWLGWVRQAPGKGLEWVSDIYPGYDYTHYNEKFKDRFTISADTSKNTAYLQMNSLRAEDTAVYYCARSDGSSTYWGQGTLVTVSS
VL: DIQMTQSPSSLSASVGDRVTITCRASQDISQYLNWYQQKPGKAPKLLIYYTSRLQSGVPSRFSGSGSGTDFTLTISSLQPEDFATYFCQQGNTWPPTFGQGTKLEIKRTVAAPDIQMTQSPSSLSASVGDRVTITCTSSQNIVHSNGNTYLEWYQQKPGKAPKLLIYKVSNRFSGVPSRFSGSGSGTDFTLTISSLQPEDFATYYCFQVSHVPYTFGQGTKVEIKR
B2: DVD3226 (bispecific antibody, IgG1)
VH: B1 VH
VL: DIQMTQSPSSLSASVGDRVTITCRASQDISQYLNWYQQKPGKAPKLLIYYTSRLQSGVPSRFSGSGSGTDFTLTISSLQPEDFATYFCQQGNTWPPTFGQGTKLEIKRTVAAPSVFIFPPDIQMTQSPSSLSASVGDRVTITCTSSQNIVHSNGNTYLEWYQQKPGKAPKLLIYKVSNRFSGVPSRFSGSGSGTDFTLTISSLQPEDFATYYCFQVSHVPYTFGQGTKVEIKR
B3: DVD3234 (bispecific antibody, IgG1)
VH: B1 VH with A30N, T102N, M104V, D105A
VL: B1 VL with S30E, Q31N, W94Q
B4: DVD3227 (bispecific antibody, IgG1)
VH: EVQLVQSGAEVKKPGASVKVSCKASGYTFANYGIIWVRQAPGQGLEWMGWINTYTGKPTYAQKFQGRVTMTTDTSTSTAYMELSSLRSEDTAVYYCARKLFTTMDVTDNAMDYWGQGTTVTVSSASTKGPSVFPLAPEVQLVESGGGLVQPGGSLRLSCAASGFSFSKYWLGWVRQAPGKGLEWVSDIYPGYDYTHYNEKFKDRFTISADTSKNTAYLQMNSLRAEDTAVYYCARSDGSSTYWGQGTLVTVSS
VL: B1 VL
B5: DVD3228 (bispecific antibody, IgG1)
VH: EVQLVESGGGLVQPGGSLRLSCAASGFSFSKYWLGWVRQAPGKGLEWVSDIYPGYDYTHYNEKFKDRFTISADTSKNTAYLQMNSLRAEDTAVYYCARSDGSSTYWGQGTLVTVSSGGGGSGGGGSEVQLVQSGAEVKKPGASVKVSCKASGYTFANYGIIWVRQAPGQGLEWMGWINTYTGKPTYAQKFQGRVTMTTDTSTSTAYMELSSLRSEDTAVYYCARKLFTTMDVTDNAMDYWGQGTTVTVSS
VL: DIQMTQSPSSLSASVGDRVTITCTSSQNIVHSNGNTYLEWYQQKPGKAPKLLIYKVSNRFSGVPSRFSGSGSGTDFTLTISSLQPEDFATYYCFQVSHVPYTFGQGTKVEIKRGGSGGGGSGDIQMTQSPSSLSASVGDRVTITCRASQDISQYLNWYQQKPGKAPKLLIYYTSRLQSGVPSRFSGSGSGTDFTLTISSLQPEDFATYFCQQGNTWPPTFGQGTKLEIKR
B6: DVD3233 (bispecific antibody, IgG1)
VH: EVQLVQSGAEVKKPGASVKVSCKASGYTFNNYGIIWVRQAPGQGLEWMGWINTYTGKPTYAQKFQGRVTMTTDTSTSTAYMELSSLRSEDTAVYYCARKLFNTVAVTDNAMDYWGQGTTVTVSSGGGGSGGGGSEVQLVESGGGLVQPGGSLRLSCAASGFSFSKYWLGWVRQAPGKGLEWVSDIYPGYDYTHYNEKFKDRFTISADTSKNTAYLQMNSLRAEDTAVYYCARSDGSSTYWGQGTLVTVSS
VL: DIQMTQSPSSLSASVGDRVTITCRASQDIENYLNWYQQKPGKAPKLLIYYTSRLQSGVPSRFSGSGSGTDFTLTISSLQPEDFATYFCQQGNTQPPTFGQGTKLEIKRGGSGGGGSGDIQMTQSPSSLSASVGDRVTITCTSSQNIVHSNGNTYLEWYQQKPGKAPKLLIYKVSNRFSGVPSRFSGSGSGTDFTLTISSLQPEDFATYYCFQVSHVPYTFGQGTKVEIKR
B7: DVD3229 (bispecific antibody, IgG1)
VH: EVQLVESGGGLVQPGGSLRLSCAASGFSFSKYWLGWVRQAPGKGLEWVSDIYPGYDYTHYNEKFKDRFTISADTSKNTAYLQMNSLRAEDTAVYYCARSDGSSTYWGQGTLVTVSSASTKGPEVQLVQSGAEVKKPGASVKVSCKASGYTFANYGIIWVRQAPGQGLEWMGWINTYTGKPTYAQKFQGRVTMTTDTSTSTAYMELSSLRSEDTAVYYCARKLFTTMDVTDNAMDYWGQGTTVTVSS
VL: DIQMTQSPSSLSASVGDRVTITCTSSQNIVHSNGNTYLEWYQQKPGKAPKLLIYKVSNRFSGVPSRFSGSGSGTDFTLTISSLQPEDFATYYCFQVSHVPYTFGQGTKVEIKRTVAAPDIQMTQSPSSLSASVGDRVTITCRASQDISQYLNWYQQKPGKAPKLLIYYTSRLQSGVPSRFSGSGSGTDFTLTISSLQPEDFATYFCQQGNTWPPTFGQGTKLEIKR
B8: DVD3231 (bispecific antibody, IgG1)
VH: B7 VH
VL: DIQMTQSPSSLSASVGDRVTITCTSSQNIVHSNGNTYLEWYQQKPGKAPKLLIYKVSNRFSGVPSRFSGSGSGTDFTLTISSLQPEDFATYYCFQVSHVPYTFGQGTKVEIKRTVAAPSVFIFPPDIQMTQSPSSLSASVGDRVTITCRASQDISQYLNWYQQKPGKAPKLLIYYTSRLQSGVPSRFSGSGSGTDFTLTISSLQPEDFATYFCQQGNTWPPTFGQGTKLEIKR
B9: DVD3232 (bispecific antibody, IgG1)
VH: EVQLVESGGGLVQPGGSLRLSCAASGFSFSKYWLGWVRQAPGKGLEWVSDIYPGYDYTHYNEKFKDRFTISADTSKNTAYLQMNSLRAEDTAVYYCARSDGSSTYWGQGTLVTVSSASTKGPSVFPLAPEVQLVQSGAEVKKPGASVKVSCKASGYTFANYGIIWVRQAPGQGLEWMGWINTYTGKPTYAQKFQGRVTMTTDTSTSTAYMELSSLRSEDTAVYYCARKLFTTMDVTDNAMDYWGQGTTVTVSS
VL: B7 VL

What follows are binders tested against Recombinant Human TNF-α/TNFSF1A (human, UniProt P01375 77-233) (assay: cell-based or functional assay).
Sequence of Recombinant Human TNF-α/TNFSF1A (P01375 77-233 limits assumed): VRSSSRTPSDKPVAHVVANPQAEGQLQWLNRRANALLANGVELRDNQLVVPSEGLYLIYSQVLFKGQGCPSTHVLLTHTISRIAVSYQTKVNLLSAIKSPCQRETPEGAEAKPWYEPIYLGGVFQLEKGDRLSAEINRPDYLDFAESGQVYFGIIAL

Binder | N-Terminal VD huTNFα Neutralization Assay IC50 | C-Terminal VD huTNFα Neutralization Assay IC50
B1 | 0.004 nM | 
B2 | 0.011 nM | 
B3 | 0.009 nM | 
B4 | 0.002 nM | 
B5 |  | 0.052 nM
B6 | 0.005 nM | 
B7 |  | 0.086 nM
B8 |  | 0.112 nM
B9 |  | 0.254 nM
